From patent publication US12018066 (TRIAD NATIONAL SECURITY, dated 2024)
Values joined by “and” are separate entries in the source; they are usually repeats but may differ in a detail not shown here. Equal entries are not always repeated. Where two headings read alike, the source gives them in different places.

Experiments:
[1] = target: T1, SARS-CoV spike protein receptor binding domain (RBD1) (SARS-CoV, UniProt P59594 306-527); experiment: ELISA, crude rabbit minibody
[2] = target: T1, SARS-CoV spike protein receptor binding …; experiment: plate immunoassay on immobilized antigen, PE-labelled anti-rabbit/anti-human
[3] = target: T2, SARS-CoV-2 spike protein receptor binding domain (RBD2) (SARS-CoV-2, UniProt P0DTC2 319-537); experiment: flow cytometry, yeast-expressed scFv
[4] = target: T2, SARS-CoV-2 spike protein receptor …
[5] = target: T2, SARS-CoV-2 spike protein receptor …; experiment: flow cytometry, yeast-displayed scFv, titration of biotinylated antigen
[6] = target: T2, SARS-CoV-2 spike protein receptor …; experiment: flow cytometry, yeast-displayed scFv
[7] = target: T2, SARS-CoV-2 spike protein receptor …; remark: listed apart in the source

B1: G07 rabbit minibody (scFv-rabbit Fc) (Fc fusion)
scFv-Fc: QSVLIQPPSASGTPGQRVTISCSGSNSNFGSNSVSWYQQRPGTAPKLLIEGNNQRPSGVPERFSGSKSGTSASLAISGLQSEDEAEYSCASWDDSLNAFVFGPGTKLTVLSGGSAITSYNVYYTKLSSSGTQVQLVQSGAEVKKPGESLKISCKGSGYSFTSYWIGWVRQMPGKGLEWMGIIYPGDSDIRYSPSFQGQVTISADKSFSSAYLQWSSLKASDTAMYYCARLGATGAFDIWGQGTTVTVSS
B1: no binding [1].

B2: S01 rabbit minibody (scFv-rabbit Fc) (Fc fusion)
chain: EIVMTQSPSSLSASVGDSVTITCQASQDISNYLNWYQQKPGKAPKLLIYDASNLETGVPSRFSGGGSGTDFTLTITSLQPEDIATYYCQQYDNFPPTFGPGTKVDIKSGGSTITSYNVYYTKLSSSDTQVQLVESGGGLVKPGGSLRLSCAASGFTVGSNYMSWVRQAPGKGLEWVSVIYSGGSTYYADSVKGRFTISRDNSKNTLYLQMNSLRAEDTAVYYCARGSSGAWYFDLWGRGTLVTVSS
B2: no binding [2].

B3: S01 human minibody (scFv-human Fc) (Fc fusion)
chain: EIVMTQSPSSLSASVGDSVTITCQASQDISNYLNWYQQKPGKAPKLLIYDASNLETGVPSRFSGGGSGTDFTLTITSLQPEDIATYYCQQYDNFPPTFGPGTKVDIKSGGSTITSYNVYYTKLSSSDTQVQLVESGGGLVKPGGSLRLSCAASGFTVGSNYMSWVRQAPGKGLEWVSVIYSGGSTYYADSVKGRFTISRDNSKNTLYLQMNSLRAEDTAVYYCARGSSGAWYFDLWGRGTLVTVSS
B3: no binding [2].

B4: R26 rabbit minibody (scFv-rabbit Fc) (Fc fusion)
scFv-Fc: SYELTQPPSVSVAPGQTATITCGGKNIESKSVHWYQQKPGQAPVLVVSDDTDRASGIPERFSGSNSGGAATLTISRVEAGDEADYYCQVWDSPSDHYVFGPGTKLTVLSGGSTITSYNVYYTKLSSSGTQVQLVESGGGVVQPGRSLRLSCAASGFTFSSYAMHWVRQAPGKGLEWVAVISYDGSNKYYADSVKGRFTISRDKAKNTLYLQMNSLRGEDTAVYYCARELSYYDSSGYLRGDWYFDLWGRGTLVTVSS
B4: no binding [1].

B5: R09 scFv (scFv)
scFv: QPGLTQPPSVSVSPGQTASITCSGDKLGYKYVSWYQQKPGQSPVLVIYEDTKRPSGIPKRFSGSNSGNTATLTICGTQAVDEADYYCQAWDSSVVFGGGTKLTVLSGGSTITSYNVYDTKLSSSGTQVQLVQSGAEVKKPGASVKVSCKASGYTFTSYGISWVRQAPGQGLEWMGWISAYNGNTNYAQKFQGRVTMTTDTSTSTAYMELRSLRSDDTAVYYCARDMELRPPFDYWGQGTLVTVSS
Work on B5 yielded a Kd [3] of 4820 nM.

B6: D07 scFv (scFv)
scFv: SYELTQPPSVSVAPGETARMTCGGNNIGTKGVHWYQQKPGQAPVLVVYDDSDRPSGIPERFSGSNAGNTATLTISRVEAGDEADYYCQVWDSRSDQYVFGTRTKLTVLSGGSTITSYNVYYTKLSSSGAQVTLKESGPVLVKPTETLTLTCTVSGFSLSNARMGVSWIRQPPGKALEWLAHIFSNGEKSYSTSLKSRLTISKDTSKSQVVLTMTNMDPVDTATYYCARTLDYYDSSGYLVGGAFDIWGQGTMVTVSS
With B6 the Kd [3] was 268 nM, the Kd [4] was 113 nM and 138 nM and the Kd [5] was 113 nM.

B7: H02 rabbit minibody (scFv-rabbit Fc) (Fc fusion)
scFv-Fc: QSVVTQPPSVSAAPGQKVTISCSGSSSNIGNNYVSWYQQLPGTAPKLLIYRDTQRPSGVPDRFSGSKSGTSASLAISGLRSEDEADYYCATWDKSLSGPVFGGGTKVTVLSGGSTITSYNVYYTKLSSSGTQVQLQQSGPGLVKPSQTLSLTCAISGDSVSSNSAAWNWIRQSPSRGLEWLGRTYYRSKWYNDYAVSVKSRIIINPDTSKNQFSLQLNSVTPEDTAVYYCARQDNNPYYGLDVWGQGTTVTVSS
B7: no binding [1].

B8: H05 rabbit minibody (scFv-rabbit Fc) (Fc fusion)
scFv-Fc: SYVLTQPPSVSVAPGQTARITCGANNIGRISVHWYQQKPGQAPVLVVYDDSDRPSGIPERFSGSNFGNTATLTISRVEAGDEADYYCQVWDSYSDHVIFGGGTKLTVLSGGSTITSYNVYYTKLSSSGTQVQLVQSGAEVKKPGSSVKVSCKASGGTFSSYAISWVRQAPGQGLEWMGGIIPIFGTANYAQKFQGRVTITADESTSTAYMELSSLRSEDTAVYYCARSIFGVVIISHADGYYYGMDVWGQGTTVTVSS
B8: no binding [1].

B9: D04 scFv (scFv)
scFv: SYVLTQPPSVSVAPGKTARITCGGNNIGWKSVHWYQQKPGQAPVLVVYNDNDRPSGVPERFSGSNSGNTATLTISRVVAGDEADYYCQVWDSSSDHVLFGGGTKLTVLSGGSTITSYNVYYTKLSSSGTQVQLVQSGAEVKKPGSSVKVSCKASGGTFSSYAISWVRQAPGQGLEWMGGIIPIFGTANYAQKFQGRVTITADESTSTAYMELSSLRSEDTAVYYCARASGRWLQFWHYYGMDVWGQGTTVTVS
B9 showed a Kd [4] of 33 nM and a Kd [5] of 33 nM.

B10: H03 rabbit minibody (scFv-rabbit Fc) (Fc fusion)
scFv-Fc: SYELTQPPSVSVAPGQTARITCGGNNIGSKSVHWYQQKPGQAPVLVIYYDSDRPSGIPERFSGSNSGNTATLTISRVEAGDEADYYCQVWDSSSALYVFGTRTKVTVLSGGSTITSYNVYYTKLSSSGTQVQLVESGGGLVQPGRSLRLSCAASGFTFDDYAMHWVRQAPGKGLEWVSGISWNSGSIGYADSVKGRFTISRDNAKNSLYLQVNSLRAEDTAVYYCARELIVGTTSPQTDAFDIWGQGTMVTVSS
B10: no binding [1].

B11: D11 rabbit minibody (scFv-rabbit Fc) (Fc fusion)
scFv-Fc: SYELTQPPSVSVAPGQTARITCGGNNIGSKSVHWYQQKPGQAPVLVVYDDSDRPSGIPERFSGSNSGNTATLTISGTQAMDEADYYCQAWDSSTAYVFGSGTKLTVLSGGSTITSYNVYYTKLSSSGTQVQLEESGGGLVQPGGSLRLSCAASGFTFSNYAMSWVRQAPGKGLEWVSAISGSGGATFHADSVKGRFTISRDNSKNTLYLQMNSLRAEDTAVYYCARRVGYDSSGYYWSDAFDIWGQGTMVTVSS
B11: no binding [1].

B12: B04 scFv (scFv)
scFv: SYVLTQPPSVSVAPGKTARITCGGNNIGIRSVHWYQQKPGQAPVLVIYYDSDRPSGIPERFSGSKSGNTATLTISRVEAGDEADYYCQVWDSSSDHPVFGGGTKLTVLSGGSTITSYNVYYTKLSSSGTQVQLVESGAEVKKPGASVKVSCKASGYTFTRYYMHWVRQAPGQGLEWMGIINPSGGTTSYAQKFQGRVTMTRDTSTSTVYMELSSLRSEDTAVYYCARSFGELTSFDYWGQGTLVTVSS
B12 gave a Kd [6] of 13.9 nM, a Kd [4] of 13.9 nM and a Kd [5] of 13.9 nM.

B13: E01 scFv (scFv)
scFv: SYELTQPPSVSVAPGETARITCGGDNIGRRHVHWYQQKPGQAPVLVIYDDSDRPSGIPDRFSGSNSGNTATLTIGRVEAGDEADYYCQVWGSSNDPHVFGTGTKLTVLSGGSTITSNNVYYTKLSSSGTQVQLQQWGAGLLKPSETLSLKCAVYGGSFSGYYWGWIRQSTGKGLEWIGEINRSGSTNYNPSLKSRVTISVDTSKNQFSLKLSSVTAADTAVYYCARGGARYYYGSGSYRSTPRPYYFDYWGQGTLVTVSS
notes: also called E1
B13 was tested, and the Kd [3] was 16.1 nM, the Kd [6] was 13.9 nM and the Kd [7] was 13.9 nM. For the same binder, the Kd [5] was 13.9 nM.

B14: E01 rabbit minibody (scFv-rabbit Fc) (Fc fusion)
scFv-Fc: SYELTQPPSVSVAPGETARITCGGDNIGRRHVHWYQQKPGQAPVLVIYDDSDRPSGIPDRFSGSNSGNTATLTIGRVEAGDEADYYCQVWGSSNDPHVFGTGTKLTVLSGGSTITSNNVYYTKLSSSGTQVQLQQWGAGLLKPSETLSLKCAVYGGSFSGYYWGWIRQSTGKGLEWIGEINRSGSTNYNPSLKSRVTISVDTSKNQFSLKLSSVTAADTAVYYCARGGARYYYGSGSYRSTPRPYYFDYWGQGTLVTVSS
B14: no binding [2].

B15: F07 scFv (scFv)
scFv: SYVLTQPPSVSVAPGQTARITCGGNNIGSKSVHWYQQKPGQAPVLVVYDDSDRPSGIPERFSGSNSGNTATLIISRVEAGDEADYYCQVWDSSSVHYVFGTGTKLTVLSGGSTITSYNVYYTKLSSSGTQVQLVQSGAEVKKPGSSVRVSCKVSGYTFTGYYMHWVRQAPGQGLEWMGIINPSGGSTSYAQKFQGRVTMTRDTSTSTVYMELSSLRSEDTAVYYCARVRVGASDAFDIWGQGTMVTVSS
Work on B15 yielded a Kd [3] of 280 nM, a Kd [6] of 67.5 nM and a Kd [7] of 67.5 nM. It also gave a Kd [5] of 67.5 nM.

B16: E07 scFv (scFv)
scFv: SYVLTQPPSVSVAPGQTARITCGGNNIGSKSVHWYQQKPGQAPVLVVYDDSDRPSGIPERFSGSNSGNTATLIISRVEAGDEADYYCQVWDSSSVHYVFGTGTKLTVLSGGSTITSYNVYYTKLSSSGTQVQLVQSGAEVKKPGSSVRVSCKVSGYTFTGYYMHWVRQAPGQGLEWMGIINPSGGSTSYAQKFQGRVTMTRDTSTSTVYMELSSLRSEDTAVYYCARVRVGASDAFDIWGQGTMVTVSS
Work on B16 yielded a Kd [3] of 436 nM.

B17: F07 human minibody (scFv-human Fc) (Fc fusion)
chain: SYVLTQPPSVSVAPGQTARITCGGNNIGSKSVHWYQQKPGQAPVLVVYDDSDRPSGIPERFSGSNSGNTATLIISRVEAGDEADYYCQVWDSSSVHYVFGTGTKLTVLSGGSTITSYNVYYTKLSSSGTQVQLVQSGAEVKKPGSSVRVSCKVSGYTFTGYYMHWVRQAPGQGLEWMGIINPSGGSTSYAQKFQGRVTMTRDTSTSTVYMELSSLRSEDTAVYYCARVRVGASDAFDIWGQGTMVTVSS
B17: no binding [2].

B18: F07 rabbit minibody (scFv-rabbit Fc) (Fc fusion)
chain: SYVLTQPPSVSVAPGQTARITCGGNNIGSKSVHWYQQKPGQAPVLVVYDDSDRPSGIPERFSGSNSGNTATLIISRVEAGDEADYYCQVWDSSSVHYVFGTGTKLTVLSGGSTITSYNVYYTKLSSSGTQVQLVQSGAEVKKPGSSVRVSCKVSGYTFTGYYMHWVRQAPGQGLEWMGIINPSGGSTSYAQKFQGRVTMTRDTSTSTVYMELSSLRSEDTAVYYCARVRVGASDAFDIWGQGTMVTVSS
B18: no binding [2].
